Details: Carica papaya, Thermal, DSC, glycine 0.05M, reversible: No, whole UniProt chain shown

B1: Papain wild type, P00784 (protein)
chain: MAMIPSISKLLFVAICLFVYMGLSFGDFSIVGYSQNDLTSTERLIQLFESWMLKHNKIYKNIDEKIYRFEIFKDNLKYIDETNKKNNSYWLGLNVFADMSNDEFKEKYTGSIAGNYTTTELSYEEVLNDGDVNIPEYVDWRQKGAVTPVKNQGSCGSCWAFSAVVTIEGIIKIRTGNLNEYSEQELLDCDRRSYGCNGGYPWSALQLVAQYGIHYRNTYPYEGVQRYCRSREKGPYAAKTDGVRQVQPYNEGALLYSIANQPVSVVLEAAGKDFQLYRGGIFVGPCGNKVDHAVAAVGYGPNYILIKNSWGTGWGENGYIRIKRGTGNSYGVCGLYTSSFYPVKN
pH 2.9
  Tm: 60.3 °C
  unfolding enthalpy (calorimetric): 133 kcal/mol
pH 3.8
  Tm: 78.5 °C
  unfolding enthalpy (calorimetric): 198 kcal/mol
pH 4.1
  Tm: 81.8 °C
  unfolding enthalpy (calorimetric): 211 kcal/mol

Reference: FireProtDB (doi:10.1016/0167-4838(93)90045-s)
